Reference: publication PMC4715182, “Structure of a Chaperone-Usher Pilus Reveals the Molecular Basis of Rod Uncoiling” (Cell, 2016)
Several values for one entry are separate records, joined by “and”; a condition that tells them apart may be missing. Equal entries are not always repeated.

Experiments:
PapA Gln106AzF, P04127 = biological target: T1, PapA Gln106AzF, P04127; assay: pilus rod formation quantified by Sypro Ruby signal after ultracentrifugation; details: chain shown with the change;; parent: est. 100; read off a plot
T1 chain: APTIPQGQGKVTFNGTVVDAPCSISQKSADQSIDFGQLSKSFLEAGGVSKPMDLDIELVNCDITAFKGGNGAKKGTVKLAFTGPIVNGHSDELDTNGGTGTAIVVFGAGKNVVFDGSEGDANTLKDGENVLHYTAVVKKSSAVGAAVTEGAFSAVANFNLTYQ

PapA Lys27AzF, P04127 = biological target: T2, PapA Lys27AzF, P04127; assay: as above; details: chain shown with the change;; parent: est. 100; read off a plot
T2 chain: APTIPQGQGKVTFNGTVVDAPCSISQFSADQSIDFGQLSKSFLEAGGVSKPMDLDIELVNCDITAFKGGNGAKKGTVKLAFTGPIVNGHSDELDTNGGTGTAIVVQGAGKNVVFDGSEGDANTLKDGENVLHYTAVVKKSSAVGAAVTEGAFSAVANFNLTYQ

[1] = biological target: the molecule itself; assay: in vitro rod formation (pelleting by ultracentrifugation, negative stain EM, Sypro Ruby signal); purified PapD:PapA complexes at 50 μM, 20°C, 72 hr; four rounds of ultracentrifugation at 57,000 x g; 20 mM Tris (pH 7.5), 150 mM NaCl
PapA Val143AzF, P04127 = biological target: T3, PapA Val143AzF, P04127; assay: pilus rod formation quantified by Sypro Ruby signal after ultracentrifugation; details: chain shown with the change;; parent: est. 100; read off a plot
T3 chain: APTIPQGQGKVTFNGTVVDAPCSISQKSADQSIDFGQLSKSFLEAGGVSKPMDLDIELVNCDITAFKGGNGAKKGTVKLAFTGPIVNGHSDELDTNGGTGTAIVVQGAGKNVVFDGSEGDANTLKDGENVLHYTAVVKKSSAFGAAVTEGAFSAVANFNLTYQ

PapA Val155AzF, P04127 = biological target: T4, PapA Val155AzF, P04127; assay: as above; details: chain shown with the change;; parent: est. 100; read off a plot
T4 chain: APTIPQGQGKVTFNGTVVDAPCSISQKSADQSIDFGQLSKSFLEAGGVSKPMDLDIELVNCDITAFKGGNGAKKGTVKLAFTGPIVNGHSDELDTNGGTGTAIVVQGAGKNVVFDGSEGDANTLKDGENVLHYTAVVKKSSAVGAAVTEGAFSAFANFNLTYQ

PapA Val18AzF, P04127 = biological target: T5, PapA Val18AzF, P04127; assay: as above; details: chain shown with the change;; parent: est. 100; read off a plot
T5 chain: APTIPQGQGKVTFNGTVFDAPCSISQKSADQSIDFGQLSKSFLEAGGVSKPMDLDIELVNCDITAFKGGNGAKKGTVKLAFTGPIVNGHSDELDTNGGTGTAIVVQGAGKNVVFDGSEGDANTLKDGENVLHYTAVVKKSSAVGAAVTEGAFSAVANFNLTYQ

[2] = biological target: the molecule itself; assay: SEC; purified PapDHis:PapA left to polymerize at 20°C for 16 hr at 38 μM; Superdex 200 10/300 increase; donor-strand exchange (DSE) products
PapA Lys50AzF, P04127 = biological target: T6, PapA Lys50AzF, P04127; assay: pilus rod formation quantified by Sypro Ruby signal after ultracentrifugation; details: chain shown with the change;; parent: est. 100; read off a plot
T6 chain: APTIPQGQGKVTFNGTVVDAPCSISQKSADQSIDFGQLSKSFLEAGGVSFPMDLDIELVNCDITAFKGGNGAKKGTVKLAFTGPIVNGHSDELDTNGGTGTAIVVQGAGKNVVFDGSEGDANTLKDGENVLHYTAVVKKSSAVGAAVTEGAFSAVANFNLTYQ

PapA Thr76AzF, P04127 = biological target: T7, PapA Thr76AzF, P04127; assay: as above; details: chain shown with the change;; parent: est. 100; read off a plot
T7 chain: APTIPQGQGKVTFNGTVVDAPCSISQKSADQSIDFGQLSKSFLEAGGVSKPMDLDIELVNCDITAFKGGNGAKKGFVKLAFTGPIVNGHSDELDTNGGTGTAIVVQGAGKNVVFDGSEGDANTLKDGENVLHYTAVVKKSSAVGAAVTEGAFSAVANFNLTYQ

[3] = biological target: the molecule itself; assay: SEC-MALS; sample of PapD:PapA Val18AzF; Superdex 200 10/300 increase; molecular weight of each peak

B1: PapA wild-type, P04127 Q106AzF (protein)
chain: APTIPQGQGKVTFNGTVVDAPCSISQKSADQSIDFGQLSKSFLEAGGVSKPMDLDIELVNCDITAFKGGNGAKKGTVKLAFTGPIVNGHSDELDTNGGTGTAIVVFGAGKNVVFDGSEGDANTLKDGENVLHYTAVVKKSSAVGAAVTEGAFSAVANFNLTYQ
For B1, the percent of parent (% of wild-type Sypro Ruby signal) (PapA Gln106AzF, P04127) was 93.

B2: PapA wild-type, P04127 K27AzF (protein)
chain: APTIPQGQGKVTFNGTVVDAPCSISQFSADQSIDFGQLSKSFLEAGGVSKPMDLDIELVNCDITAFKGGNGAKKGTVKLAFTGPIVNGHSDELDTNGGTGTAIVVQGAGKNVVFDGSEGDANTLKDGENVLHYTAVVKKSSAVGAAVTEGAFSAVANFNLTYQ
Binder B2 has a percent of parent (% of wild-type Sypro Ruby signal) (PapA Lys27AzF, P04127) of 93.

B3: PapA Gln106AzF (natural protein)
chain: APTIPQGQGKVTFNGTVVDAPCSISQKSADQSIDFGQLSKSFLEAGGVSKPMDLDIELVNCDITAFKGGNGAKKGTVKLAFTGPIVNGHSDELDTNGGTGTAIVVFGAGKNVVFDGSEGDANTLKDGENVLHYTAVVKKSSAVGAAVTEGAFSAVANFNLTYQ
modifications: p-azido-L-phenylalanine (AzF) at 106
notes: PapA of uropathogenic E. coli with AzF at residue 106 by amber suppression; The new residue is the unnatural amino acid p-azido-L-phenylalanine; written as F with the modification
B3: binds [1].

B4: PapA wild-type, P04127 V143AzF (protein)
chain: APTIPQGQGKVTFNGTVVDAPCSISQKSADQSIDFGQLSKSFLEAGGVSKPMDLDIELVNCDITAFKGGNGAKKGTVKLAFTGPIVNGHSDELDTNGGTGTAIVVQGAGKNVVFDGSEGDANTLKDGENVLHYTAVVKKSSAFGAAVTEGAFSAVANFNLTYQ
B4 showed a percent of parent (% of wild-type Sypro Ruby signal) (PapA Val143AzF, P04127) of 94.

B5: PapA Val143AzF (natural protein)
chain: APTIPQGQGKVTFNGTVVDAPCSISQKSADQSIDFGQLSKSFLEAGGVSKPMDLDIELVNCDITAFKGGNGAKKGTVKLAFTGPIVNGHSDELDTNGGTGTAIVVQGAGKNVVFDGSEGDANTLKDGENVLHYTAVVKKSSAFGAAVTEGAFSAVANFNLTYQ
modifications: p-azido-L-phenylalanine (AzF) at 143
notes: PapA of uropathogenic E. coli with AzF at residue 143 by amber suppression; The new residue is the unnatural amino acid p-azido-L-phenylalanine; written as F with the modification
B5: binds [1].

B6: PapA Lys27AzF (natural protein)
chain: APTIPQGQGKVTFNGTVVDAPCSISQFSADQSIDFGQLSKSFLEAGGVSKPMDLDIELVNCDITAFKGGNGAKKGTVKLAFTGPIVNGHSDELDTNGGTGTAIVVQGAGKNVVFDGSEGDANTLKDGENVLHYTAVVKKSSAVGAAVTEGAFSAVANFNLTYQ
modifications: p-azido-L-phenylalanine (AzF) at 27
notes: PapA of uropathogenic E. coli with AzF at residue 27 by amber suppression; The new residue is the unnatural amino acid p-azido-L-phenylalanine; written as F with the modification
B6: binds [1].

B7: PapA wild-type, P04127 V155AzF (protein)
chain: APTIPQGQGKVTFNGTVVDAPCSISQKSADQSIDFGQLSKSFLEAGGVSKPMDLDIELVNCDITAFKGGNGAKKGTVKLAFTGPIVNGHSDELDTNGGTGTAIVVQGAGKNVVFDGSEGDANTLKDGENVLHYTAVVKKSSAVGAAVTEGAFSAFANFNLTYQ
Work on B7 yielded a percent of parent (% of wild-type Sypro Ruby signal) (PapA Val155AzF, P04127) of 5.

B8: PapA Lys50AzF (natural protein)
chain: APTIPQGQGKVTFNGTVVDAPCSISQKSADQSIDFGQLSKSFLEAGGVSFPMDLDIELVNCDITAFKGGNGAKKGTVKLAFTGPIVNGHSDELDTNGGTGTAIVVQGAGKNVVFDGSEGDANTLKDGENVLHYTAVVKKSSAVGAAVTEGAFSAVANFNLTYQ
modifications: p-azido-L-phenylalanine (AzF) at 50
notes: PapA of uropathogenic E. coli with AzF at residue 50 by amber suppression; The new residue is the unnatural amino acid p-azido-L-phenylalanine; written as F with the modification
B8: binds [1].

B9: PapA wild-type, P04127 V18AzF (protein)
chain: APTIPQGQGKVTFNGTVFDAPCSISQKSADQSIDFGQLSKSFLEAGGVSKPMDLDIELVNCDITAFKGGNGAKKGTVKLAFTGPIVNGHSDELDTNGGTGTAIVVQGAGKNVVFDGSEGDANTLKDGENVLHYTAVVKKSSAVGAAVTEGAFSAVANFNLTYQ
B9 showed a percent of parent (% of wild-type Sypro Ruby signal) (PapA Val18AzF, P04127) of 5.

B10: PapA wild-type (natural protein)
chain: APTIPQGQGKVTFNGTVVDAPCSISQKSADQSIDFGQLSKSFLEAGGVSKPMDLDIELVNCDITAFKGGNGAKKGTVKLAFTGPIVNGHSDELDTNGGTGTAIVVQGAGKNVVFDGSEGDANTLKDGENVLHYTAVVKKSSAVGAAVTEGAFSAVANFNLTYQ
notes: PapA, major P pilus rod subunit of uropathogenic E. coli; Ala1 is the very N terminus in the model; also called major pilus subunit PapA; P pilus rod subunit
B10: binds [2].

B11: PapA Thr76AzF (natural protein)
chain: APTIPQGQGKVTFNGTVVDAPCSISQKSADQSIDFGQLSKSFLEAGGVSKPMDLDIELVNCDITAFKGGNGAKKGFVKLAFTGPIVNGHSDELDTNGGTGTAIVVQGAGKNVVFDGSEGDANTLKDGENVLHYTAVVKKSSAVGAAVTEGAFSAVANFNLTYQ
modifications: p-azido-L-phenylalanine (AzF) at 76
notes: PapA of uropathogenic E. coli with AzF at residue 76 by amber suppression; The new residue is the unnatural amino acid p-azido-L-phenylalanine; written as F with the modification
B11: binds [1].

B12: PapA wild-type, P04127 K50AzF (protein)
chain: APTIPQGQGKVTFNGTVVDAPCSISQKSADQSIDFGQLSKSFLEAGGVSFPMDLDIELVNCDITAFKGGNGAKKGTVKLAFTGPIVNGHSDELDTNGGTGTAIVVQGAGKNVVFDGSEGDANTLKDGENVLHYTAVVKKSSAVGAAVTEGAFSAVANFNLTYQ
With B12 the percent of parent (% of wild-type Sypro Ruby signal) (PapA Lys50AzF, P04127) was 72.

B13: PapA wild-type, P04127 T76AzF (protein)
chain: APTIPQGQGKVTFNGTVVDAPCSISQKSADQSIDFGQLSKSFLEAGGVSKPMDLDIELVNCDITAFKGGNGAKKGFVKLAFTGPIVNGHSDELDTNGGTGTAIVVQGAGKNVVFDGSEGDANTLKDGENVLHYTAVVKKSSAVGAAVTEGAFSAVANFNLTYQ
With B13 the percent of parent (% of wild-type Sypro Ruby signal) (PapA Thr76AzF, P04127) was 96.

B14: PapA Val155AzF (natural protein)
chain: APTIPQGQGKVTFNGTVVDAPCSISQKSADQSIDFGQLSKSFLEAGGVSKPMDLDIELVNCDITAFKGGNGAKKGTVKLAFTGPIVNGHSDELDTNGGTGTAIVVQGAGKNVVFDGSEGDANTLKDGENVLHYTAVVKKSSAVGAAVTEGAFSAFANFNLTYQ
modifications: p-azido-L-phenylalanine (AzF) at 155
notes: PapA of uropathogenic E. coli with AzF at residue 155 by amber suppression; The new residue is the unnatural amino acid p-azido-L-phenylalanine; written as F with the modification
B14: binds [2].

B15: PapA Val18AzF (natural protein)
chain: APTIPQGQGKVTFNGTVFDAPCSISQKSADQSIDFGQLSKSFLEAGGVSKPMDLDIELVNCDITAFKGGNGAKKGTVKLAFTGPIVNGHSDELDTNGGTGTAIVVQGAGKNVVFDGSEGDANTLKDGENVLHYTAVVKKSSAVGAAVTEGAFSAVANFNLTYQ
modifications: p-azido-L-phenylalanine (AzF) at 18
notes: PapA of uropathogenic E. coli with AzF at residue 18 by amber suppression; The new residue is the unnatural amino acid p-azido-L-phenylalanine; written as F with the modification; also called Val18 mutant
In the case of B15, the “stoichiometry N” value [3] is reported as 2 and 3.

B16: PapA Asn96AzF (natural protein)
chain: APTIPQGQGKVTFNGTVVDAPCSISQKSADQSIDFGQLSKSFLEAGGVSKPMDLDIELVNCDITAFKGGNGAKKGTVKLAFTGPIVNGHSDELDTFGGTGTAIVVQGAGKNVVFDGSEGDANTLKDGENVLHYTAVVKKSSAVGAAVTEGAFSAVANFNLTYQ
modifications: p-azido-L-phenylalanine (AzF) at 96
notes: PapA of uropathogenic E. coli with AzF at residue 96 by amber suppression; The new residue is the unnatural amino acid p-azido-L-phenylalanine; written as F with the modification
B16: binds [2].

B17: PapA Asp126AzF (natural protein)
chain: APTIPQGQGKVTFNGTVVDAPCSISQKSADQSIDFGQLSKSFLEAGGVSKPMDLDIELVNCDITAFKGGNGAKKGTVKLAFTGPIVNGHSDELDTNGGTGTAIVVQGAGKNVVFDGSEGDANTLKFGENVLHYTAVVKKSSAVGAAVTEGAFSAVANFNLTYQ
modifications: p-azido-L-phenylalanine (AzF) at 126
notes: PapA of uropathogenic E. coli with AzF at residue 126 by amber suppression; The new residue is the unnatural amino acid p-azido-L-phenylalanine; written as F with the modification
B17: binds [2].
